Experimental data taken from article PMC11965285.

Molecular target: Lyn kinase (mouse (endogenous in mouse brain)) (UniProt P25911)
Assay: pull-down

Chain of UniProt P25911 (P25911 whole entry): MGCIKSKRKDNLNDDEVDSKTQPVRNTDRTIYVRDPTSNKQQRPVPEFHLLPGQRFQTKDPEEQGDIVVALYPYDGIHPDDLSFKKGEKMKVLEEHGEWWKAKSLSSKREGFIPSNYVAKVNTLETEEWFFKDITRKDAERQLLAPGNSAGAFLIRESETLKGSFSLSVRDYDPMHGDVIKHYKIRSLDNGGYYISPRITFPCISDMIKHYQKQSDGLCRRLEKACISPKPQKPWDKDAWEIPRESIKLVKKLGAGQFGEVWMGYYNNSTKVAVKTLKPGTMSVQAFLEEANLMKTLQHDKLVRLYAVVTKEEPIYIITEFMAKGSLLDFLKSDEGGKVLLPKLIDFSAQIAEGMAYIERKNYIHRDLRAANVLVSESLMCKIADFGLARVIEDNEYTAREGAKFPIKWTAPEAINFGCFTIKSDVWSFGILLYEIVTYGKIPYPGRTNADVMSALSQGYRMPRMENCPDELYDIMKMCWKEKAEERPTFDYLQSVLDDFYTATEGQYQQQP

IC50: 17.9 nM
Substance: TLR4-Lyn interacting modulator (TLIM) protein (domain or fragment)
